Laboratory results as given in article PMC11079029, “Intramolecular autoinhibition regulates the selectivity of PRPF40A tandem WW domains for proline-rich motifs” (Nature Communications, 2024).
Residue numbers refer to the chain shown, from its start. Values joined by “and” are separate entries in the source; they are usually repeats but may differ in a detail not shown here. Equal values may be shown once. Each block holds one binder with its values, some of them ahead of it.

Columns and labels:
Details in all cases: both partners purified
[1] = molecular target: T1, PRPF40A N-ext-WW12 (residues 56-236) (human, UniProt O75400 56-236); experiment: ITC; MicroCal PEAQ-ITC, 25 °C, 20 mM sodium phosphate pH 6.5, 100 mM NaCl; PRPF40A constructs and GB1-tagged SF1 16-mer peptides; who was in the syringe is not stated for these panels (Fig. 2B, Fig. 5C); one-site model
T1 construct: PRPF40A isoform 1, residues 56-236: N-terminal proline-rich region and both WW domains; pETM11 vector; also called Nter Ext WW12; N-terminal extended WW12 construct; source: E. coli BL21(DE3), purified (Ni-NTA, TEV cleavage, reverse Ni-NTA, SEC); not shown: His6, N-terminal, cleaved
T1 sequence (looked up): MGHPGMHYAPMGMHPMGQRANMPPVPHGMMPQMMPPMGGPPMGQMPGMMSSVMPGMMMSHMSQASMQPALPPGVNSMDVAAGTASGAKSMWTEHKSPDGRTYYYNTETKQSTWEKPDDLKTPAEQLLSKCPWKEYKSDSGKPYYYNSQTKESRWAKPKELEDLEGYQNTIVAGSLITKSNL

[2] = molecular target: T2, PRPF40A N-ext-WW12 mutant (PPVP and PALPP motifs changed to alanine residues) (human, UniProt O75400 56-236, 78-81 PPVP to AAAA | 123-127 PALPP to AAAAA); experiment: as above
T2 construct: PRPF40A isoform 1, residues 56-236, with the two motifs PPVP (78-81) and PALPP (123-127) changed to alanine residues; made by site-directed mutagenesis of N-ext-WW12; also called Nter Ext WW12 MUTANT; mutated version of the N-extWW12; source: E. coli BL21(DE3), purified (Ni-NTA, TEV cleavage, reverse Ni-NTA, SEC); not shown: His6, N-terminal, cleaved
T2 sequence (looked up): T1 sequence (looked up) with P23A, P24A, V25A, P26A, P68A, L70A, P71A, P72A

[3] = molecular target: T3, GB1-polyproline peptide P22; experiment: ITC; MicroCal PEAQ-ITC, 25 °C, 20 mM sodium phosphate pH 6.5, 100 mM NaCl; GB1-polyproline peptides in the cell, WW12 in the syringe (N sites >1: more than one WW tandem on one peptide); one-site model; apparent
T3 construct: common N-terminal residues after the TEV site (TEVsite-GAMSGS-peptide-SGSN); 22 consecutive prolines; common C-terminal residues; pET24 vector with 6xHis, GB1 and TEV site as N-terminal cassette, not cleaved; also called polyproline length 22; source: E. coli BL21(DE3), purified (Ni-NTA, SEC); not shown: GB1, N-terminal, kept
T3 chain: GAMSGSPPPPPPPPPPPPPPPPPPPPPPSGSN

[4] = molecular target: T4, GB1-polyproline peptide P25; experiment: as above
T4 construct: common N-terminal residues after the TEV site (TEVsite-GAMSGS-peptide-SGSN); 25 consecutive prolines; common C-terminal residues; pET24 vector with 6xHis, GB1 and TEV site as N-terminal cassette, not cleaved; also called polyproline length 25; source: E. coli BL21(DE3), purified (Ni-NTA, SEC); not shown: GB1, N-terminal, kept
T4 chain: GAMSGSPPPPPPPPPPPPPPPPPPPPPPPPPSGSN

[5] = molecular target: T5, GB1-polyproline peptide P29; experiment: as above
T5 construct: common N-terminal residues after the TEV site (TEVsite-GAMSGS-peptide-SGSN); 29 consecutive prolines; common C-terminal residues; pET24 vector with 6xHis, GB1 and TEV site as N-terminal cassette, not cleaved; also called polyproline length 29; source: E. coli BL21(DE3), purified (Ni-NTA, SEC); not shown: GB1, N-terminal, kept
T5 chain: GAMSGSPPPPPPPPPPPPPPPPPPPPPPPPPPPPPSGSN

[6] = molecular target: T6, GB1-SF1 Pro BC (residues 468-594) (UniProt Q15637 468-594); experiment: ITC; MicroCal PEAQ-ITC, 25 °C, 20 mM sodium phosphate pH 6.5, 100 mM NaCl; GB1-tagged SF1/SF3A1 constructs in the syringe, WW12 in the cell (N sites <1: more than one WW tandem on one construct); one-site model; apparent
T6 construct: SF1 (splicing factor 1) residues 468-594; pET24 vector with 6xHis, GB1 and TEV site as N-terminal cassette, not cleaved; source: E. coli BL21(DE3), purified (Ni-NTA, SEC); not shown: GB1, N-terminal, kept
T6 sequence (looked up): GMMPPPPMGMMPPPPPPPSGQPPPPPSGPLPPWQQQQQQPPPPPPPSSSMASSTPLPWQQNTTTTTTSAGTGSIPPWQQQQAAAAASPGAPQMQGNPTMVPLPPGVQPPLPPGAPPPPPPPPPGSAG

[7] = molecular target: T7, GB1-SF1 Pro CD (residues 539-639) (UniProt Q15637 539-639); experiment: as above
T7 construct: SF1 (splicing factor 1) residues 539-639; pET24 vector with 6xHis, GB1 and TEV site as N-terminal cassette, not cleaved; source: E. coli BL21(DE3), purified (Ni-NTA, SEC); not shown: GB1, N-terminal, kept
T7 sequence (looked up): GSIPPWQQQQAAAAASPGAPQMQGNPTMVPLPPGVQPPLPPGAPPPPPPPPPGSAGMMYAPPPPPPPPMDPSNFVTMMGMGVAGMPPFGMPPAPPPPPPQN

[8] = molecular target: T8, GB1-SF1 Pro BCD (residues 468-639) (UniProt Q15637 468-639); experiment: as above
T8 construct: SF1 (splicing factor 1) residues 468-639; pET24 vector with 6xHis, GB1 and TEV site as N-terminal cassette, not cleaved; source: E. coli BL21(DE3), purified (Ni-NTA, SEC); not shown: GB1, N-terminal, kept
T8 sequence (looked up): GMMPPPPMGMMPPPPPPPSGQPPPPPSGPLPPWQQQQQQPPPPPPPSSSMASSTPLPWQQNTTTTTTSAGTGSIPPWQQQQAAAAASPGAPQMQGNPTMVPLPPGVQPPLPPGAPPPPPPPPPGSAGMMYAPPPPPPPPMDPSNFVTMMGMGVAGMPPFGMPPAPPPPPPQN

[9] = molecular target: T9, GB1-SF1 Pro ABCD (residues 410-639) (UniProt Q15637 410-639); experiment: as above
T9 construct: SF1 (splicing factor 1) residues 410-639, the complete proline-rich C-terminal region; pET24 vector with 6xHis, GB1 and TEV site as N-terminal cassette, not cleaved; also called complete C-terminal region of SF1; source: E. coli BL21(DE3), purified (Ni-NTA, SEC); not shown: GB1, N-terminal, kept
T9 sequence (looked up): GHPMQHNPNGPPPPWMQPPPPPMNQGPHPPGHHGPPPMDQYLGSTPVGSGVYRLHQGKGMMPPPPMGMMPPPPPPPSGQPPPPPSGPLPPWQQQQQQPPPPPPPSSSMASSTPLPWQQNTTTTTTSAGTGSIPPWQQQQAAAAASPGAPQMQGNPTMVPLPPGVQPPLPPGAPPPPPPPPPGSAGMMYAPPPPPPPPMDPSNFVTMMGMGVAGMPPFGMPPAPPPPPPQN

[10] = molecular target: T10, GB1-SF3A1 C-ter Pro (residues 552-683) (UniProt Q15459 552-683); experiment: as above
T10 construct: pET24 vector with 6xHis, GB1 and TEV site as N-terminal cassette, not cleaved; source: E. coli BL21(DE3), purified (Ni-NTA, SEC); not shown: GB1, N-terminal, kept
T10 sequence (looked up): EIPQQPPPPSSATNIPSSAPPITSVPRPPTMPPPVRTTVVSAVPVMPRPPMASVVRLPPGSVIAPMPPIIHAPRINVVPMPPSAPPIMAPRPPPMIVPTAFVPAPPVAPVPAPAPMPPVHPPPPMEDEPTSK

Kd [1]: 9.19 µM and 8.22 µM and 8.71 µM
Kd [2]: 2.44 µM and 1.98 µM and 2.21 µM
B1: GB1-SF1(575-590) 16-mer peptide, SF1 PRPF40A WW binding site (peptide)
chain: GAMSGSPPLPPGAPPPPPPPPPSGSN
notes: common N-terminal residues after the TEV site (TEVsite-GAMSGS-peptide-SGSN); SF1 (splicing factor 1) residues 575-590; common C-terminal residues; pET24 vector with 6xHis, GB1 and TEV site as N-terminal cassette, not cleaved for ITC; also called SF1_(WWbs); SF1 WWbs; source: E. coli BL21(DE3), purified (Ni-NTA, SEC); not shown: GB1, N-terminal, kept

stoichiometry N [3]: 1.41 and 1.37 and 1.39
stoichiometry N [4]: 2.21 and 2.39 and 2.3
stoichiometry N [5]: 2.38 and 2.56 and 2.47
Kd [6]: 3.63 µM and 7.76 µM and 9.11 µM and 6.83 µM
Kd [7]: 2.83 µM and 4.32 µM and 4.26 µM and 3.8 µM
Kd [8]: 2.93 µM and 4.36 µM and 3.65 µM
Kd [9]: 5.41 µM and 4.4 µM and 4.91 µM
Kd [10]: 23.8 µM and 14.8 µM and 19.3 µM
B2: PRPF40A WW12 (tandem WW domains, residues 141-236) (domain or fragment, human, UniProt O75400 141-236, looked up)
chain: GAKSMWTEHKSPDGRTYYYNTETKQSTWEKPDDLKTPAEQLLSKCPWKEYKSDSGKPYYYNSQTKESRWAKPKELEDLEGYQNTIVAGSLITKSNL
notes: pETM11 vector (NcoI/KpnI); also called PRPF40A WW tandem; isolated WW domains; source: E. coli BL21(DE3), purified (Ni-NTA, TEV cleavage, reverse Ni-NTA, SEC); not shown: His6, N-terminal, cleaved
